# Patent US20240400703A1 (Genmab, published 2024)
# T1: human OX40 expressed on cells (human, UniProt P43489 29-277)
# T1 construct: also called CD134; TNFRSF4
# T1 sequence: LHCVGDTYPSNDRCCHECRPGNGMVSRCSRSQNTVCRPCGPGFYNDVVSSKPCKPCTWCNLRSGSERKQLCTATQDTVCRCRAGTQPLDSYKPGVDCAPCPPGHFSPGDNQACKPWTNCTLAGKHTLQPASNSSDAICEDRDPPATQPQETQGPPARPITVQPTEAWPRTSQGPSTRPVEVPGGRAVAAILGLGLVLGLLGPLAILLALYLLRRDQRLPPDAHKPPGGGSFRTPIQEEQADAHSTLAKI
# T2: His-tagged human recombinant FcγRIIa 167-His (Sino Biological, cat. no. 10374-H08H1) (human, UniProt P12318 34-218)
# T2 construct: also called FcγRIIa[H]
# T2 sequence (looked up): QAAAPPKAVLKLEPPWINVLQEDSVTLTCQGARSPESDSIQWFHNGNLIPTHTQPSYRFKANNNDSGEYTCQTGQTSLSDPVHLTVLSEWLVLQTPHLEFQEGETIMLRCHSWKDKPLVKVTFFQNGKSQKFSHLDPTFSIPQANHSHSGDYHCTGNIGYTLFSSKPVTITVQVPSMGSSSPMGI
# T3: His-tagged human recombinant FcγRIIa 167-Arg (Sino Biological, cat. no. 10374-H27H) (human, UniProt P12318 34-218)
# T3 construct: also called FcγRIIa[R]
# T3 sequence (looked up): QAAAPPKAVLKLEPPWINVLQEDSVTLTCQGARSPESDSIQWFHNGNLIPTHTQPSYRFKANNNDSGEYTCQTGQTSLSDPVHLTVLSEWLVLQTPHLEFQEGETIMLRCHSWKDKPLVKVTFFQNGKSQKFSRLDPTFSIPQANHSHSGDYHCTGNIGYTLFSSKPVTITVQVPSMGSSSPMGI
# T4: His-tagged human recombinant FcγRIIb (Sino Biological, cat. no. 10259-H27H-B) (human, UniProt P31994 43-217)
# T4 construct: also called FcγRII2b [sic]
# T4 sequence (looked up): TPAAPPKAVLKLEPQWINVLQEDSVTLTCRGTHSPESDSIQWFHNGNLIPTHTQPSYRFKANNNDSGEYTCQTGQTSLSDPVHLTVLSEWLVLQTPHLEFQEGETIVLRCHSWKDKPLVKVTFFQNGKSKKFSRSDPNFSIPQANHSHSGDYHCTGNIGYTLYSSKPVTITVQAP
# T5: human OX40 with mouse CRD3 (human with mouse CRD3, UniProt P43489 29-277)
# T5 construct: on ExpiCHO-S cells; also called OX40-CRD3mm; Shuffle 3
# T5 chain: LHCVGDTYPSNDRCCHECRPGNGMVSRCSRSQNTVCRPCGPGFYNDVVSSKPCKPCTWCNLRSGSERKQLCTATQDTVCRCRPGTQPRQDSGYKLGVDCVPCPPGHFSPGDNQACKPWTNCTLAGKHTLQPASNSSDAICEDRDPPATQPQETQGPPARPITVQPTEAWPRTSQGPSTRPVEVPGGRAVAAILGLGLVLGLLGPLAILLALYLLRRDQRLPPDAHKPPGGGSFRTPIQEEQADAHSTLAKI
# T6: human OX40 with mouse CRD1 (human with mouse CRD1, UniProt P43489 29-277)
# T6 construct: on ExpiCHO-S cells; also called OX40-CRD1mm; Shuffle 1
# T6 chain: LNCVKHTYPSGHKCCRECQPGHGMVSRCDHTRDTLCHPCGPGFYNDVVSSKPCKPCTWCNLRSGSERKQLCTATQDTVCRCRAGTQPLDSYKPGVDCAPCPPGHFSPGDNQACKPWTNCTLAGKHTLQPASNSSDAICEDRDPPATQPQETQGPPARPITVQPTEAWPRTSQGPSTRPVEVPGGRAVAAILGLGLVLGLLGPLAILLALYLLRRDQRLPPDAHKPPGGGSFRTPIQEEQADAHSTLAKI
# T7: mouse OX40 expressed on ExpiCHO-S cells (mouse, UniProt P47741 20-272)
# T7 construct: full-length entry; also called OX40mm; wild-type mouse OX40
# T7 sequence: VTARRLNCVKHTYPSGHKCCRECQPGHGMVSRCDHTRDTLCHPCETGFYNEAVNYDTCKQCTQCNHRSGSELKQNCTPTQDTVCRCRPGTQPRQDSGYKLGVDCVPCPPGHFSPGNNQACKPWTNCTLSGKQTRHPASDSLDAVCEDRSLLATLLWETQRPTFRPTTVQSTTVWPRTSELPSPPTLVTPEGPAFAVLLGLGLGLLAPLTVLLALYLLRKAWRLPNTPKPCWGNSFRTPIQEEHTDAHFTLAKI
# T8: cynomolgus monkey OX40 expressed on HEK293F cells (cynomolgus monkey (Macaca fascicularis), UniProt P43489 29-277 (human entry))
# T8 construct: full-length entry
# T8 chain: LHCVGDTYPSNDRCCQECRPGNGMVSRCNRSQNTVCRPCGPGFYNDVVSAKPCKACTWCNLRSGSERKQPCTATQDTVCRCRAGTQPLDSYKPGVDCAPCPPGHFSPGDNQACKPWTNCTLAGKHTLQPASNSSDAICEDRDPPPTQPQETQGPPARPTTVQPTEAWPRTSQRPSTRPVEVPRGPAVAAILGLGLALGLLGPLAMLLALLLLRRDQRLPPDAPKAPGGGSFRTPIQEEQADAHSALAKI
# T9: human OX40 with mouse CRD4 (human with mouse CRD4, UniProt P43489 29-277)
# T9 construct: on ExpiCHO-S cells; also called OX40-CRD4mm; Shuffle 4
# T9 chain: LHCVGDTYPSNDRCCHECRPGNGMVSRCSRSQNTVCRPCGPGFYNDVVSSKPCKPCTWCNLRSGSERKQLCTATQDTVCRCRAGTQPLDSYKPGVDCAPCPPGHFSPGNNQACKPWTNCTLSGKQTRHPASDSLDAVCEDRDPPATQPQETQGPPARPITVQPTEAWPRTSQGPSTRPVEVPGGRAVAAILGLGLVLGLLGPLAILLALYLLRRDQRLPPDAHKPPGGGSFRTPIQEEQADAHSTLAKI
# T10: human OX40 with mouse CRD2 (human with mouse CRD2, UniProt P43489 29-277)
# T10 construct: on ExpiCHO-S cells; also called OX40-CRD2mm; Shuffle 2
# T10 chain: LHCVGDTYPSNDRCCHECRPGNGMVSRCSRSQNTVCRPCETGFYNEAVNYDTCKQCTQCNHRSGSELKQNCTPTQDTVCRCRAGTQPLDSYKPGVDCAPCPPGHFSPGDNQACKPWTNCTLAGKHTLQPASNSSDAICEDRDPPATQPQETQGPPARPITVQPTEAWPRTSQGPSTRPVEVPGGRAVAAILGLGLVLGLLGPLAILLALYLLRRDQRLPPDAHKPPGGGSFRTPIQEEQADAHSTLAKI
# What was measured:
# [1] = target: T1, human OX40 expressed on cells; test: flow cytometry, human T cells activated 2 days with anti-CD3/CD28 beads, 2 µg/mL sOX40L, anti-mouse Fc detection
# Protocol: Stimulated PBMCs were pelleted, resuspended in FACS buffer 2 (DPBS with 2% heat-inactivated FBS [Sigma-Aldrich, cat. no. F7524] and 2 mM EDTA [Sigma-Aldrich, cat. no. 03690]), and seeded (100,000 cells/well) in round-bottom 96-well plates (VWR International GmbH, cat. no. 734-197). […] Next, cells were washed twice in FACS buffer, and incubated with 30 μL of the antibody panel described in Table 11 diluted in FACS buffer 2 containing 1:1,500 Fixable Viability Stain eFluor 780 at 4° C. for 20 min, protected from light. The cells were subsequently washed twice with 120-150 μL FACS buffer 2 and measured on a BD FACSCelesta flow cytometer using a BD High Throughput sampler and subsequent analysis was done using FlowJo software.
# [2] = target: T2, His-tagged human recombinant FcγRIIa …; test: SPR, His-tagged FcγR captured on anti-His chip, antibody injected
# Protocol: (§1) Biacore Series S Sensor Chips CM5 (Cytiva, cat. no. 29104988) were covalently coated with anti-His antibody using amine-coupling and His capture kits (Cytiva, cat. no. BR100050 and cat. no. 29234602) according to the manufacturer's instructions. […] After three start-up cycles of HBS-EP+ buffer, antibody samples were injected for 12 cycles per sample to generate binding curves using antibody concentration ranges of 0 to 3,000 nM for FcγRIa and 0 to 10,000 nM for the other FcγRs.
# (§2) Dissociation from the anti-His-coated surface was performed by regeneration of the surface using 10 mM Glycine-HCl pH 1.5 (Cytiva, cat. no. BR100354).
# [3] = target: T11, His-tagged human recombinant FcγRIIIa 176-Phe (Sino Biological, cat. no. 10389-H27H) (human, UniProt P08637 17-208); test: as above
# T11 construct: also called FcγRIIIa[F]
# T11 sequence (P08637 17-208 limits assumed): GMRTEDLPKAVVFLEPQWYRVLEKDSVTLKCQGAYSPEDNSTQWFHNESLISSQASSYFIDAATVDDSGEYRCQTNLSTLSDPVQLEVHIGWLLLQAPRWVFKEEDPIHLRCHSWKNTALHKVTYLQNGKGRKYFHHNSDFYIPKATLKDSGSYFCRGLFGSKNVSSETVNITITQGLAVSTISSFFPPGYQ
# Protocol: as §1, §2
# [4] = target: T12, His-tagged human recombinant FcγRIIIa 176-Val (Sino Biological, cat. no. 10389-H27H1-B) (human, UniProt P08637 17-208); test: as above
# T12 construct: also called FcγRIIIa[V]
# T12 sequence (P08637 17-208 F176V limits assumed): as the sequence (P08637 17-208 limits assumed) above, with F160V counted along it
# Protocol: as §1, §2
# [5] = target: His-tagged human recombinant FcγRIa (Sino Biological, cat. no. 10256-H08S-B) (human, UniProt P12314 16-288); test: as above
# Chain of His-tagged human recombinant FcγRIa (Sino Biological, cat. no. 10256-H08S-B) (P12314 16-288 limits assumed, stated change not applied): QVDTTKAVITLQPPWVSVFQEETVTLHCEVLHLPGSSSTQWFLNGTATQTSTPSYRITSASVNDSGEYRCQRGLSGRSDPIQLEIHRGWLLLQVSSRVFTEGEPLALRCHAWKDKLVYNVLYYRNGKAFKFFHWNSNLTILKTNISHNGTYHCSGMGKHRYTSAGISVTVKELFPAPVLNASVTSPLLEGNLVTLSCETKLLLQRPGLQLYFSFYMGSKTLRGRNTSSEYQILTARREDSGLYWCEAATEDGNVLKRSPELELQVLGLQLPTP
# Protocol: as §1, §2
# [6] = target: T3, His-tagged human recombinant FcγRIIa …; test: as above
# Protocol: as §1, §2
# [7] = target: T4, His-tagged human recombinant FcγRIIb …; test: as above
# Protocol: as §1, §2
# [8] = target: T5, human OX40 with mouse CRD3; test: flow cytometry, transfected ExpiCHO-S cells, gMFI (PE)
# [9] = target: T6, human OX40 with mouse CRD1; test: as above
# [10] = target: T7, mouse OX40 expressed on ExpiCHO-S cells; test: as above
# [11] = target: T8, cynomolgus monkey OX40 expressed on …; test: flow cytometry, OX40-transfected HEK293F cells, gMFI (PE)
# Protocol: (§3) Transfected cells were seeded in 96-well plates (30,000 cells/well; ThermoFisher, cat. no. 163320) for sequential incubations, with washing steps in between using fluorescence-activated cell sorting (FACS) buffer 1 (phosphate buffered saline [PBS; Lonza, cat. no. BE17-517Q] supplemented with 0.1% bovine serum albumin [BSA; Roche, cat. no. 10735086001] and 0.02% sodium azide [NaN₃; Bio-World, cat. no. 41920044-3]) supplemented with 2 mM ethylenediaminetetraacetic acid (EDTA; Sigma-Aldrich, cat. no. 03690). […] Cells were then washed using EDTA-supplemented FACS buffer 1, resuspended in a 30 μL solution of viability marker ToPro-3 (Invitrogen, cat. no. T3605, diluted 1:10,000) in EDTA-supplemented FACS buffer 1, and subsequently analyzed on an iQue® 3 flow cytometer (Satorius). Data were analyzed using FlowJo software and were visualized using GraphPad Prism.
# [12] = target: T1, human OX40 expressed on cells; test: as above
# Protocol: as §3
# [13] = target: T9, human OX40 with mouse CRD4; test: flow cytometry, transfected ExpiCHO-S cells, gMFI (PE)
# Protocol: The four shuffle constructs, as well as wild-type human and mouse OX40 were transiently expressed on ExpiCHO-S cells using the ExpiFectamine™ CHO Transfection Kit (ThermoFisher, cat. no. A29131), according to the manufacturer's protocol. […] Next, cells were washed twice in FACS buffer 1, were resuspended in a 30 μL solution of viability marker ToPro-3 (Invitrogen, cat. no. T3605, diluted 1:10,000) in FACS buffer 1 supplemented with 2 mM EDTA, and were analyzed on an iQue Screener Plus (Intellicyt Corporation, USA). Data were analyzed using FlowJo software and visualized using GraphPad Prism.
# [14] = target: T10, human OX40 with mouse CRD2; test: as above
# [15] = target: T13, human FcγRIa expressed on cells (human, UniProt P12314 16-374); test: flow cytometry, FcγRIa-expressing human monocyte-derived M2c-like macrophages, 15 min
# T13 construct: whole, on cells; also called FcγR1a; CD64
# T13 sequence (P12314 16-374): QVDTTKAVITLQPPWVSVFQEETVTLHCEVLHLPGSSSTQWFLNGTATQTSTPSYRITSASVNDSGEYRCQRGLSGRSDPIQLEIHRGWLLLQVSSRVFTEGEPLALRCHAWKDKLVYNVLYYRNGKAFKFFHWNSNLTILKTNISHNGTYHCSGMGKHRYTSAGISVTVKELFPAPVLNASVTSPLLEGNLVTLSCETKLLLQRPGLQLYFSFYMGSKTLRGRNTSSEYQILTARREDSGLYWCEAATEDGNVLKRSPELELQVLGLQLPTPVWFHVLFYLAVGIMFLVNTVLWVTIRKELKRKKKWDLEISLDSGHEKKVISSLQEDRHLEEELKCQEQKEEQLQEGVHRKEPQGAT
binder,measurement,setting,value
"murine Fc-tagged human sOX40L (Sino Biological, cat. no. 13127-H04H) (Fc fusion, UniProt P23510 51-183, looked up, bought protein; also called soluble OX40L; not shown: murine Fc tag) QVSHRYPRIQSIKVQFTEYKKEKGFILTSQKEDEIMKVQNNSVIINCDGFYLISLKGYFSQEVNISLHYQKDEEPLFQLKKVRSVNSLMVASLTYKDKVYLNVTTDNTSLDDFHVNGGELILIHQNPGEFCVL",binding result,[1],binds
"IgG1-CD134-003-HC6LC2-E345R (antibody, also called variant of IgG1-CD134-003-HC6LC2-RR without Fc-inertness mutation; copies: 2 + 2) heavy: not shown light: AAVLTQSPSSLSASVGDRVTITCQSSQIVVNNNFLSWYQQKPGKAPKLLIYDASNLASGVPDRFSGSGSGTDFTFTISSLQPEDIATYYCLGGYDDDAENAFGGGTKVEIKRTVAAPSVFIFPPSDEQLKSGTASVVCLLNNFYPREAKVQWKVDNALQSGNSQESVTEQDSKDSTYSLSSTLTLSKADYEKHKVYACEVTHQGLSSPVTKSFNRGEC",binding result,[2],binds
same,binding result,[3],binds
same,binding result,[4],binds
same,binding result,[5],binds
same,binding result,[6],binds
same,binding result,[7],binds
"IgG1-b12-RR (antibody, also called IgG1-b12-P329R-E345R) heavy: not shown VL: EIVLTQSPGTLSLSPGERATFSCRSSHSIRSRRVAWYQHKPGQAPRLVIHGVSNRASGISDRFSGSGSGTDFTLTITRVEPEDFALYYCQVYGASSYTFGQGTKLERK",binding result,[8],no binding (tested: 50 µg/mL)
same,binding result,[9],no binding (tested: 50 µg/mL)
same,binding result,[10],no binding (tested: 50 µg/mL)
same,binding result,[11],no binding (tested: 50 µg/mL)
same,binding result,[12],no binding (tested: 50 µg/mL)
same,binding result,[13],no binding (tested: 50 µg/mL)
same,binding result,[14],no binding (tested: 50 µg/mL)
same,binding result,[15],no binding (tested: 10 µg/mL)
